Settings in all cases: both partners purified
Test [1] addresses T1, human wt-ERα LBD (estrogen receptor alpha ligand-binding domain, amino acids 302-552) (human, UniProt P03372 302-552).
T1 sequence (looked up): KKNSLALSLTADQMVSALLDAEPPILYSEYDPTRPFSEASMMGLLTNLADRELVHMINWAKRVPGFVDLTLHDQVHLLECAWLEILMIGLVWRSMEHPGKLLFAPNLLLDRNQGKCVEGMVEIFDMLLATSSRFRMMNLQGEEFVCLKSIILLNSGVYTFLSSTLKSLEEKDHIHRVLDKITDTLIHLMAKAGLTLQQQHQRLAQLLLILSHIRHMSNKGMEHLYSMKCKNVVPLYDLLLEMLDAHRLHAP
Description: fluorescence polarisation; fluorescence anisotropy; 4 nM fluorescein-SRC-1 NR2 peptide, LBD diluted 2-fold from 10 uM (ERα) or 20 uM (ERβ); with E2 at 20 uM (ERα) or 40 uM (ERβ); 20 mM Tris pH 8.0, 150 mM NaCl, 5 mM DTT, 10% glycerol.

For test [2], the target named is T2, human wt-ERβ LBD (estrogen receptor beta ligand-binding domain, amino acids 261-502) (human, UniProt Q92731 261-502).
T2 construct: Cloned into pET-32a; N-terminal thioredoxine-hexahistidine tag removed with TEV protease; not shown: thioredoxin, N-terminal, cleaved; His6, N-terminal, cleaved
The description is as above.

Test [3] concerns the target T2, human wt-ERβ LBD (estrogen receptor …). As to the kind of experiment: fluorescence polarisation; fluorescence anisotropy; 4 nM fluorescein-SRC-1 NR2 peptide, LBD diluted 2-fold from 10 uM (ERα) or 20 uM (ERβ); with BBP at 20 uM (ERα) or 40 uM (ERβ); 20 mM Tris pH 8.0, 150 mM NaCl, 5 mM DTT, 10% glycerol. For orientation: In fluorescence polarisation assays a small probe gives low polarisation when free and higher when bound to something large.

For test [4], the target named is T1, human wt-ERα LBD (estrogen receptor …). As to the kind of experiment: fluorescence polarisation; fluorescence anisotropy; 4 nM fluorescein-SRC-1 NR2 peptide, LBD diluted 2-fold from 10 uM (ERα) or 20 uM (ERβ); in the absence of ligand (apo-receptor); 20 mM Tris pH 8.0, 150 mM NaCl, 5 mM DTT, 10% glycerol.
Test [5] addresses T2, human wt-ERβ LBD (estrogen receptor …). The description is as above.
For test [6] the target is unchanged. As to the kind of experiment: fluorescence polarisation; fluorescence anisotropy; 4 nM fluorescein-SRC-1 NR2 peptide, LBD diluted 2-fold from 10 uM (ERα) or 20 uM (ERβ); with BP-2 at 20 uM (ERα) or 40 uM (ERβ); 20 mM Tris pH 8.0, 150 mM NaCl, 5 mM DTT, 10% glycerol.
Test [7] concerns the target T1, human wt-ERα LBD (estrogen receptor …). As to the kind of experiment: fluorescence polarisation; fluorescence anisotropy; 4 nM fluorescein-SRC-1 NR2 peptide, LBD diluted 2-fold from 10 uM (ERα) or 20 uM (ERβ); with α-ZA at 20 uM (ERα) or 40 uM (ERβ); 20 mM Tris pH 8.0, 150 mM NaCl, 5 mM DTT, 10% glycerol.
Test [8] addresses T2, human wt-ERβ LBD (estrogen receptor …). As to the kind of experiment: fluorescence polarisation; fluorescence anisotropy; 4 nM fluorescein-SRC-1 NR2 peptide, LBD diluted 2-fold from 10 uM (ERα) or 20 uM (ERβ); with butylparaben at 20 uM (ERα) or 40 uM (ERβ); 20 mM Tris pH 8.0, 150 mM NaCl, 5 mM DTT, 10% glycerol.

Where no end group is shown, it is not given here. fluorescein = fluorescein label on the N-terminus of the peptide

T2 sequence (Q92731 261-502): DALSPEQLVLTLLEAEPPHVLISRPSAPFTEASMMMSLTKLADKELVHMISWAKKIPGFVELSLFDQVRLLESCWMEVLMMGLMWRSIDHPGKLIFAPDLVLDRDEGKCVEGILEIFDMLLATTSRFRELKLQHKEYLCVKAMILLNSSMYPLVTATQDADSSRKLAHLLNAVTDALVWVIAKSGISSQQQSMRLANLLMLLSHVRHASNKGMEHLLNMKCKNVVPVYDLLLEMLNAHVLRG

B1: fluorescein-RHKILHRLLQEGS peptide corresponding to the NR box 2-binding motif of SRC-1 (peptide)
peptide: fluorescein-RHKILHRLLQEGS
notes: also called SRC-1 NR2 peptide; fluorescein-labeled SRC-1 NR2 peptide; source: bought: EZbiolab
In the case of B1, the Kd (usually the free concentration of one partner at which half of the binding sites on the other are occupied at equilibrium, for simple one-to-one binding) in test [1] was 110 nM; in test [2], 680 nM; in test [3] it was 10600 nM; in test [4], 6280 nM; in test [5], 4540 nM; in test [6] it was 990 nM. Also, the Kd stood at 330 nM in test [7] and 1130 nM in test [8].

For the origin of these results see article PMC4256047, “Structural and Functional Profiling of Environmental Ligands for Estrogen Receptors” (Environmental Health Perspectives, 2014).
